# The nanobody polyreactivity screen of Harvey et al. (2022)
# Test: yeast display, Sf9 membrane polyspecificity reagent, FACS + sequencing; frameworks hold sequencing errors
# Method in brief: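 Sorting gates, low and high (top ~1%), were placed on anti-HA fluorescence to track expression and on streptavidin fluorescence to track reagent binding. A clone's polyreactivity label is taken from the gate it came out of. The reagent was 10% biotinylated, detergent-solubilized Sf9 membrane, applied for 1 hour at 4 °C to galactose-induced yeast display cells.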
row,Sequence,polyreactivity (PSR sort gate)
1,QVQLVDSGVGLVQAGGSLRLSCAASGRTFTTNTKGWYRDATWKERELVAAITWSGASTYYADSVKGRFTISRDNAKNTVYLQMNSLKPEDTAVYYCAAERTPSYRAYDYWGQGTQVTVSS,low polyreactivity
2,QVQLVDSVGGLVEAGGILRLSCAASGNTFGRNAMGWYRQEPGKESELVAAISFSGSRPYYADSVKGRFTISRDNAKYTVYLQRNSLKPEDTAVYYCNKRGADWTGFFYYQYDFWGQGTQVTVSS,low polyreactivity
3,QVQLVDTGGGLVQAGGSLRLSCSASGSNFEYNDMVWYRHAHGKERELVAAISSGGDTNYADSVKGRFTISRDNAKNTVYLQKNSLKAEDTAVYYCNAEGLILYDYWGQGTQVTVSS,low polyreactivity
4,QVQLVEAAGGLVQAGGSLRLSCAASGSIFRNNAMGWYSPAPGKARELVAVISRRSGNTYYADSVKGRLTISRENAKNPVYLLMNSLKPEDSAVYYCAADYSNSSIRGDYWGQGTEVTVSS,low polyreactivity
5,QVQLVEACGGLVQAGGSLRLSCAASRSIFPYNAMGWYRQAPGKDRELVATMSSGGSTNYADSVKGRFTISRDNAKNTVYLQKNSLKPEDTAVYYCNAEAAYYPLWMDYWGQGTQVTVSS,low polyreactivity
6,QVQLVEAGGGFVQAGGRLRLSCAASGSIFTLNTRGWYSPAPGKEREWVAAMTGSGGITYSADSVKGRFTISRDKAKKTVYLQLNSLKPEETAVYYCAADTGYVHAGYWGQGTQVTVSS,low polyreactivity
7,QVQLVEAGGGFYQPGGSLRLSCAASGRTFSYYASGWYRQAPGKERELVAAITDSGDSTYYADSVKGRFTISRDNANNTVYLQMKSLKPEDTAVYDCAATTYSWYDYWGQGTQVTVSS,high polyreactivity
8,QVQLVEAGGGLVQAGGSLRLSCAASGLIIAKYAMGWYRQAPGKERELVAGITSGGGTSYADSVKGRFTISRDNAKNTVYLQMNSLKPEDTAVNYCNAVVVGWFYQYDYWGQGTQVTVSS,low polyreactivity
9,QVQLVEAGGGLVQAGGSLRLSCAASGNIFLYYAMGWYRQAPGKEREFVADIDSSGASTYYADSVKGRFTISRDNAKNTVYLQMNSLKPEDTAVYYCAAEFHWWYAGYDYGYWGQGTQVTVSS,low polyreactivity
10,QVQLVEAGGGLVQAGGSLRLSCAASGRTFYQNAMGWNIQAPGKERELVAAISRSGGSTYYADSVKGRFTISRDNAKITVYLQMTSLKPEDTAVYYCAADPRSYGGGYDYWGQGTQVTVSS,high polyreactivity
11,QVQLVEAGGGLVQAGGSLRLSCAASGSIFVGNAMGWYRQAPGKERELVAAISSSGGRKFYADSVKGRFTISRDNAKNTVYLQMISLKPEDTAVYYCAAVYTHWQQRMDYWGQGTQVTVSS,high polyreactivity
12,QVQLVEAGGGLVQAGGSLRLSCAASGSTFPYYTMGGYRQAPGKDRELVAAITWRGGRTYYADSVKGRFTISRDNAKNTVYLQMNSLKPEDTAVYYCAAKQKHTQQTGWKYEYWGQGTQVTVSS,high polyreactivity
13,QVQLVEAGGGLVQAGGSLRLSCAASGSTFRWNAMGWYRQAPGKERELVAAITRSGGSTYYADSVKGRFTISRDNAKNTFYLQMNSLKPEDTAVYYCAAGYFTARRIRYDYWGQGTQVTVSS,high polyreactivity
14,QVQLVEAGGGLVQAGGSLRLSCAASGSTFYKNAMGWYRPAAGKERELVAGISRRGGPTYYADSVKGRFTISRDKAMNTVYLQMNSLNPEDTAVYYCNTGHEEDEYDYWGQGTQVTVSS,low polyreactivity
15,QVQLVEAGGGLVQAGGSLRLSCADCVSTGVNTMGWYRQAPGKERELVDAIRATGGSTYYADSVKGRFTISRDNAKNTVYLQMNSLKPEDTAVYYCAAKWFRLYLRQDRYYYWGQGTQVTVSS,high polyreactivity
16,QVQLVEAGGGLVQAGGTLRLSCAASGYTFIYYAMGWYRQAPGKERELVATISIDGSTNYADSVKRRFTISRDNAKNTVYLQMNSLKPEDTAVYYCNRERYEDYDYWGQGTQVTVSS,high polyreactivity
17,QVQLVEKGGGLVQAGGSLRLSCAASGSTFRNNAMGRYREAPGKERELVAAIPYSGDSTSYADSVKGRFTISRDNAKNTVYLQMNSLKPEDTAVYYCNAAIDGIYLGSYTAYGYDSWGQGTQVTVSS,low polyreactivity
18,QVQLVEKGGGLVQAGGSLRLSCAASGYIFRFYTKRWYRQAPGKERELVASITRSGGSTYYADSVKGRFTFSRENAKNTVYLQKNSLKPEDTAVYYCNARKTVGMDYWGQGTQVTVSS,low polyreactivity
19,QVQLVESAAGLVQAGGSLRLSCAASGIIFPRNVMGWYRQAPGKERELVAAITYSGGRTYYADSVKGRFTISRDNAKNTVYLQMNSLKPEDTAVYYCNADFRSQPYDYWGQGTQVTVSS,low polyreactivity
20,QVQLVESAAGLVQAGGSLRLSCADSGSTIYRYAMGWYRQAPGKERELVAAISTTGGSTFYADSVKGRFTISRDNAKNTVYLQMNSLKPEDTAVYYCNAYYRGTYDYWGQGTQVTVSS,high polyreactivity
21,QVQLVESAGALVQAGGSLRLSCAASGRIFSVYAMGWYRQAPGKERELVATITYNGGSTYYADSVKGRFTISRDNAKNTVYLQMNSLKPEDTAVYYCAADWTYVRFDYWGQGTQVTVSS,low polyreactivity

row,Sequence,polyreactivity (PSR sort gate)
1,QVQLVESAGCLVQAGGSLRLSCDASGIIFKVYAMGWYSQAPGKEREWVAAISWSGSSTYYADTVKGRFTISRDKAKNTVYLQMNSLKPEDTAVYYCAAYSVARSMGYWGQGTQVTVSS,high polyreactivity
2,QVQLVESAGGIVQAGGSLRLSCAASGFIFVRNAIGWYRQAPGKEREFVAAINSSGGRTYYADSVKGRFTISRDNAKNTVYLQMNSLKPEDPAVYYCAARPQPKKFYYWGLGTQVTVSS,high polyreactivity
3,QVQLVESAGGLVQAAGSLRLSCAASGFVFYSYAMGWYRQAPGKERELVAVISRSGGSTYYADSVKGRFTISRDNAKNTVYFQMNSLKPEDTAVYYCAAKYHGQERGAPPFYYWGQGTQVTVSS,high polyreactivity
4,QVQLVESAGGLVQAAGSLRLSCDASGRIFWYNAMGWYRQEPGKERELVAAISSGGSTSYADSVKGRFTISRDNAKNTVYLQMNSLKPEDTAVYYCDKDDERKQGQYPPYDSWGQGTQVTVSS,low polyreactivity
5,QVQLVESAGGLVQAGASLRLSCAASGIIFTRYAMGWYRQPPGKESELVAAITRSSGSTYYADSVKGRFTISRDNAKNTVYLQMNSLKPEDSAVYYCAADWVSRYQARPYFSAFNYWGQGTQVTVSS,high polyreactivity
6,QVQLVESAGGLVQAGASLRLSCAASGSIFGGYAMGWYRQAPGTERELVAAISSGDSTYYADSVKGRFTISRDNAKNTVYLQMNSLKPEDTAVYYCARRYTRSYYKLGKLNYWGQGTQVTVSS,high polyreactivity
7,QVQLVESAGGLVQAGGILRLRCAASGFTFTSNAMGWYRQAPGKEREFVADISNIGGDTTYADSVKGRFTISRDNAKNTVYLQMNSLNPEDTAVYYCNADFAFIENDYCGQGTQVTVSS,low polyreactivity
8,QVQLVESAGGLVQAGGILRLSCHASGITFTSYVMGWYRQSPGKERELVAAIRWSGGRTYYADSVKGRFTISRDNAKNTVYLQMNSLKPEDTAVYYCNRVTRSHVDYWGQGTQVTVSS,high polyreactivity
9,QVQLVESAGGLVQAGGSLRLICAASGSTFTYYPMGWYRQAPGKERELVAAISGSGGRTYYADSVKGLFTISRDNAKNTVYLQMNSLKPEDTAVYYCNARATSLVPGRPKQYTYYYWGQGTQVTVSS,high polyreactivity
10,QVQLVESAGGLVQAGGSLRLSCAASGFIFARYAMGWYRQAPGKERELVAAISSSGGITYYADSVKGRFTISRDNAKNTVYFQMNSLKPEDTAVYYCNAESYYFYWPVYSYDYWGQGTQVTVSS,low polyreactivity
11,QVQLVESAGGLVQAGGSLRLSCAASGFSFYYNTMGWYRQAPGTEWELVASITWSGDTTYYADSVKGRFTISRDNAKNTVYLQMNSLKPEDTAVYYCAAVPYYPYRRYDYWGQGTQVTVAS,low polyreactivity
12,QVQLVESAGGLVQAGGSLRLSCAASGFTFDYYAMGWYRQAPGKERELVASITFIGGNTNYADSVKGRFTISRDNAKTTVYLQMNSLKPEDTAVYYCAADFPWDYRYWFEYWGQGTQVTVSS,low polyreactivity
13,QVQLVESAGGLVQAGGSLRLSCAASGFTFYRNAIGWYRQEPGTERELVAGITRSGGSTYYADSVKGRLTISRDNAKNTVYLQMNSLKPEDTAVYYCNKAFGGDKYSGTYDYWGQGTQVTVSS,high polyreactivity
14,QVQLVESAGGLVQAGGSLRLSCAASGFTFYTYGMGWYRQAPGKERALVAAITSGVSTNYADSVKGRFTISRDNAKNTVYLQMNSLKPEDTAVYYCNKVGRPAYRWYDYWGQDTQVTVSS,low polyreactivity
15,QVQLVESAGGLVQAGGSLRLSCAASGIIFGQNAMGWYRQAPGKDRELVAAITISGGSTYYADSVKGRFTISRDNAKNTVYLQMNSLKPEVTAVYYCAARRVTWKDIAGGYRYGYWGQGTQVTVSS,low polyreactivity
16,QVQLVESAGGLVQAGGSLRLSCAASGIIFTYYAMGWYRQAPGKERELVAAISSSSGSTYYADSVKGRFTISRDNAKNTVYLQMNSLKPEDTAVYYCAAAFSQYSTSYYYWGQGTQVTVSS,high polyreactivity
17,QVQLVESAGGLVQAGGSLRLSCAASGITFEVYAMGWYRQAPGKERELVAAITGSGSRTYYADSVKGRFTISRDNAKNTVYLQMNSLKPEDTAVYYCAVKGFSTRSYREFDYWGQGSQVTVSS,low polyreactivity
18,QVQLVESAGGLVQAGGSLRLSCAASGITFRYYAMGWYRQAPGKERELVATITRGGSTYYADSVKGRFTISRDNAKNTVYLQMNSLKPEDTAVYYCAARSYVPSYDYWGQGTQVTVSS,high polyreactivity
19,QVQLVESAGGLVQAGGSLRLSCAASGLTFYVNAMGWYRQAPGKERELVAAITWSGGSTHYADSVKGRFTISRDNAKNTVYLQMNSLKPEDTAVYYCARATYQHSYVAYDYWGQGTQVTVSS,low polyreactivity
20,QVQLVESAGGLVQAGGSLRLSCAASGNTFRYYAIGWYRQAPGKERELVAVITTRGGSTNYADSVKGRFTISRDNAKNTVYLQMNRLKPEVTAGYYCNTLRHYGPGYDSGGQGTQVTVSS,low polyreactivity
